The text below walks through data of patent US20110294729A1, “Novel Insulin Analogues” (Novo Nordisk A/S, priority 2008, published 2011).

Assay [1] addresses human insulin receptor B-isoform (human) (UniProt P06213). Description: SPA competition against [125I]A14Tyr-insulin, solubilized hIR-B, analogue in yeast supernatant.
Assay [2] has as its target human insulin receptor A-isoform (human) (UniProt P06213). Description: SPA competition against [125I]A14Tyr-insulin, solubilized hIR-A, analogue in yeast supernatant.
Assay [3] has as its target human insulin receptor B-isoform (human) (UniProt P06213). Description: SPA competition; ratio of the hIR-B column to the hIR-A column.

Regarding “[A8H, B25H, B27E, desB30] human insulin (ligand)”, the results for the relative affinity [% of HI] in assay [1] and in assay [2] were 140 % of HI and 67 % of HI, respectively. Besides, the Ratio B/A (relative hIR-B affinity over relative hIR-A affinity) in assay [3] was determined as 2.1.
